# Legend:
# [1] = molecular target: T1, rat CRF binding protein C-terminally fused with a His6 sequence (rat) (UniProt P24388); assay: SPA competition with 0.1 nM [125I-Tyr0]h/rCRF, His-tagged rCRFBP; 95% CI (0.60-1.3)
# T1 sequence: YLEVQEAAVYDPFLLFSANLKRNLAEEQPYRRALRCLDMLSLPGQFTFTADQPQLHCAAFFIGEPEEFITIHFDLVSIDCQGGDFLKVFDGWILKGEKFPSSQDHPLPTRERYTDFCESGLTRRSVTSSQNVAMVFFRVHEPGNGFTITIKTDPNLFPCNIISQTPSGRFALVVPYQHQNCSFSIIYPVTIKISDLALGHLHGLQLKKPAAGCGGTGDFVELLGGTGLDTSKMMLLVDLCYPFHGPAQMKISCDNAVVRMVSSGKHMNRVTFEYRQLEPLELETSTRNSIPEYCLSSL
# [2] = molecular target: mouse CRF receptor, type 2β (mouse) (UniProt Q60748)
# [3] = molecular target: mouse CRF receptor, type 2β (mouse) (UniProt Q60748); assay: SPA competition with 0.05 nM [125I-Tyr0]Svg, HEK-293 membranes; 95% CI (15-18)
# [4] = molecular target: T1, rat CRF binding protein C-terminally fused with a His6 sequence (rat); assay: SPA competition with 0.1 nM [125I-Tyr0]h/rCRF, His-tagged rCRFBP; 95% CI (70-90)
# [5] = molecular target: rat CRF receptor, type 1 (rat) (UniProt P35353); assay: SPA competition with 0.05 nM [125I-Tyr0]h/rCRF, HEK-293 membranes; 95% CI (0.44-0.79)
# [6] = molecular target: mouse CRF receptor, type 2β (mouse) (UniProt Q60748); assay: SPA competition with 0.05 nM [125I-Tyr0]Svg, HEK-293 membranes; 95% CI (0.24-1.36)
# [7] = molecular target: rat CRF receptor, type 1 (rat) (UniProt P35353)
# [8] = molecular target: T1, rat CRF binding protein C-terminally fused with a His6 sequence (rat); assay: SPA competition with 0.1 nM [125I-Tyr0]h/rCRF, His-tagged rCRFBP; 95% CI (76-104)
# [9] = molecular target: rat CRF receptor, type 1 (rat) (UniProt P35353); assay: SPA competition with 0.05 nM [125I-Tyr0]h/rCRF, HEK-293 membranes; 95% CI (0.65-1.4)
# Target sequence in this assay (P35353 24-415): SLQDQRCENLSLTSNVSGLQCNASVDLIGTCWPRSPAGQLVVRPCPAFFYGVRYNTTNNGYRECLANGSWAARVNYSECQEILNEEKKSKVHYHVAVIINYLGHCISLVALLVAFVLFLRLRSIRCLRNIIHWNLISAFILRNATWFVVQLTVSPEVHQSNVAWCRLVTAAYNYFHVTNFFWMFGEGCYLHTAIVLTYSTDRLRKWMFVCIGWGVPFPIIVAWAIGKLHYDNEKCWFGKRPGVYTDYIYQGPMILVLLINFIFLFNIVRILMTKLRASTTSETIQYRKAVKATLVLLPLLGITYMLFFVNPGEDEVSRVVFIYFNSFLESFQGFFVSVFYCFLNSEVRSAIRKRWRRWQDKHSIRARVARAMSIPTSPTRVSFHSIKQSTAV
# [10] = molecular target: mouse CRF receptor, type 2β (mouse) (UniProt Q60748); assay: SPA competition with 0.05 nM [125I-Tyr0]Svg, HEK-293 membranes; 95% CI (110-300)
# [11] = molecular target: T1, rat CRF binding protein C-terminally fused with a His6 sequence (rat); assay: SPA competition with 0.1 nM [125I-Tyr0]h/rCRF, His-tagged rCRFBP; 95% CI (0.9-1.0)
# Sequence of ovine corticotropin-releasing factor (ligand) (P01142 148-188): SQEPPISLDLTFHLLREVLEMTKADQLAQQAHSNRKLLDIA
Substance,Rel. intrinsic activity [%] [2],Rel. potency of antagonist [%] [2],Rel. intrinsic activity [%] [7],Rel. potency of antagonist [%] [7],further results
[Ala^21]Svg (from UniProt P01144) (peptide),–,–,–,–,IC50 [1]: 0.94 nM
"[Glu^11,16]Ast (peptide)",1%,97%,–,–,–
[Glu^22]h/rCRF (from UniProt P06850) (peptide),–,–,–,–,IC50 [3]: 16 nM; IC50 [4]: 80 nM; IC50 [5]: 0.61 nM
anti-sauvagine-30 (peptide),1%,99%,6.5%,2%,IC50 [6]: 0.3 nM
astressin (peptide),1.1%,99%,9.8%,86%,IC50 [8]: 90 nM
ovine corticotropin-releasing factor (ligand),–,–,–,–,IC50 [9]: 1 nM; IC50 [10]: 200 nM
α-helical CRF^9-41 (peptide),1.4%,97%,19%,14%,IC50 [11]: 1 nM
